assay: soluble on expression in E. coli; label from the status in PepcDB or PDB records

Sequence | soluble on expression in E. coli
MGSDKIHHHHHHMNYIKRSLERKFLHMSKFFKAVLVTGARQVGKTTMLKHLAEGQNRTYVTLDNLMARNLAKTDPVLFFQTYKPPVLIDEVQYAPELFSQIKILCDSSEEPGLIWLTGSQQFEMMKNVRETLAGRIGIMTLYSLSKNEKDGIEFENSLDFSPECLFARQRIAEKNDVLKVFEHIWRGGMPQVLHADAEQRQEYYNAYVNTYLMRDVAELGGITDSLRFAKFLTACAALTSEQVNYKNLSEAADISQPTAKEWLRLLEGLGIVYLLQPYANNAFKRLTKAPKLYFCDTGLCAHLSMWLTPETLMNGAASGHYFENHVVAEMLKSYAYSASKAVITYFRDSNAKEIDIIVEANNQLHPLEIKKSASPNSREINKYTILDKSSIKRGHGGILCLCEEVVPIDEQNCFIPCNLI | not soluble
MAAFNDTLRAEIEEKKEDSVSERTTRNGKILNAKDEPEFGMNITPTTLFFKYPIGGIGYSFFTVTNTTSEKQAFKVKSSDNTWFRSKPSVGFIKSGEKVHVRVTFNSPDAGKERPERGSDNKNHVAIFHVAAGDAKTYKEAFAKKAADGVHHFFARHLAEPGAQVDKEADEKAPNGA | soluble
MLEVSVMTIRRDLHQEDEPLPLTLLGGYIVMVNKPAPSMPVIHDVPKNHRDDLPIAILAAGMVNENDLIFFDNGQEIPLVISMIPDAITFTGICYSHRVFVALNEKPNVTAILCGGTYRARSDAFYDASNSSPLDSLNPRKIFISASGVHNHFGVSWFNPEDLATKRKVMNRGLRKILLARHALFDEVASASLAPISAFDVLISDRPLPADYVTHCQNGSVKIITPDSEDELEHHHHHH | not soluble
MERAPLLELKGIRKRFGELEVLRGVDLALYPGEILALLGPSGCGKTTLLRVVAGLEVPDAGRVFLEGRDITALPPEKRGIGFVFQDYALFPHLTALGNVAFGLKGKDRLARARKALERVGMTLFQDRRPGELSGGQQQRVALARALAPGPKLVLLDEPFSSLDAGLRAATREEVRKVLKETGTAALLVTHDQEEALSFADRLGVMRGGEILQVGTPEEVYLRPKTPFVAQFLGRTNLLPGEGRGRYAETCLGRVPLAEAREGPLLLSLRPEALRLTPPGQGPQGEVVAREFKGHDLTYRVRLHGVQPEREVLVQEGPTCPFKVGDRVGLEVVGEGVALEGTPPAPVRQEA | soluble
MGSDKIHHHHHHMSKKVVVTGANGYIGAHLIAELQKHSQHFQTIAVDIDDKYIPKGVTFVSMDLLNEARKETLYKECGEPDICVHLAWRDGFQHNALSHIDDLPCHFHFLKNLADHGTTHFAIAGSFREYGSVNGMVDQDAVVIPDNFYTLAKSMLKQALEIYFKEKNICLQWLRPFTVYGNDSRNNSIMSKIIRWEDEGKQSFPFTSGNEEYDYVSVYEVARQIAAVISQREVDGIIDCCTGKPTRLGDKIEGFIRENHFKIRPEYGAFPKREYDSSVIYGDNRKITEIIKKCILF | not soluble
MEEIPEHEGYKFRVARPRTDFRGTHQYASPNAHMLIELGRHDDIWSLMYMVAESFVELPWTRCEETEVEHYMNQSTILRLFSDEKNPTRLNADMRRQLDEIDSMLKASKYYDSPNYDAVYQFFKDSMAKAKVTWDTPFDWEIGNTLSEETSKGVKRKMGGPWENPGLFFTVLQ | not soluble
MSLSFPQLHTVTSYSLLSSTVRIRSYVKQAKALGYQTLAITDINVLHGAVEFYEACQEAGIQPIIGLRLEYTPAEKEGHSELLLFAKNLKGYQQLMQLSSSKMTTEGPFYLAEHQSLLSDLFAVTLSAKGEVAQTFFEDEQQAVHAFQQLASYFDPQSLFVEHSFSMNQQRNPALFSFYQREQLPGVALQEVRHLTREEGFAVTVLESIKENNQLNITSQTPEIEGLNYLREAETTMEQMLQEGHHHHHH | not soluble
MTSSTETTSTTPQVAVNDIGNEEAFLAAIDETIKYFNDGDIVDGVIVKVDRDEVLLDIGYKTEGVIPSRELSIKHDVDPNEVVKVGDEIEALVLQKEDKEGRLILSKKRAQYERAWGTIEKIKEEDGIVTGTVIEVVKGGLILDIGLRGFLPASLVEMRRVRDLQPYVGKELEAKIIELDKNRNNVVLSRRAWLEQTQSEVRQTFLTTLQKGQVRSGVVSSIVNFGAFVDLGGVDGLVHVSELSWKHIDHPSEVVEVGQEVTVEVLDVDMDRERVSLSLKATQEDPWQQFARTHQIGQVVPGKVTKLVPFGAFVRVDEGIEGLVHISELAERHVEIPEQVVQVNDEIFVKVIDIDLERRRISLSLKQANEAFGGDPASVEFDPTLYGMAASYDDQGNYIYPEGFDPETNDWLEGFESQREVWETQYAEAQQRFEQHQAQVIKSREADAQAEAEGAAAPAAGGSGAGVSGGSYSSESDDNSGALASDEALAALREKLAGGQSLEHHHHHH | soluble
MPNYKLTYFNMRGRAEIIRYIFAYLDIQYEDHRIEQADWPEIKSTLPFGKIPILEVDGLTLHQSLAIARYLTKNTDLAGNTEMEQCHVDAIVDTLDDFMSCFPWAEKKQDVKEQMFNELLTYNAPHLMQDLDTYLGGREWLIGNSVTWADFYWEICSTTLLVFKPDLLDNHPRLVTLRKKVQAIPAVANWIKRRPQTKL | soluble
MRIALFTDTYIPQVNGVARTMKRLVDHLEKRQVEYALYMPETIEKLDRFESNIHTFASLPFFLYPECRIALPNVFKLRQQLTSFQPDLLHIATPFNVGLSGLQHGKKYGIPMVGSYHTHFDHYLHYYKLQFMSAWLWKYVKWFHQPFERTFVPSVETMRHLQKHGFQRLALWTRGVDCERFHPKQRHRSYAINLLPKDKAVLLYVGRLAPEKDLATLVAIMSLLPRELNEKIQWMIVGDGPSLPEMKKQCPSNVTFTGYLKGEELAAAYASADLFVFPSATETFGNVVLEAFASGTPAIVADRGGVTEIVEHGKSGMICKAGDAHTFIQAIEHLLMNRSKRAEMGYEARQYALTQSWERIFDDLLEQYEQVIFHHKKRHLALEHHHHHH | not soluble
PVPRTCWIGPWKKNLAQGKITLKLINWIKKAELKNQPVLIFFPEIEAMNQFAEALVNYDFTRPVTVHSADQLRKEKVEWLREGKIKLLLTTTILERGVTFKDVQVAVFGSEGRIFTEAALVQIAGRAGRKLTHPTGDVCFFHYGKTTEMNRAITHIKKMNQLGFKEG | soluble
MGNQCQNGTLGSDYHNRFPREHAVGYVQGDSYLDLKKFDDTWPEVNNFKPTAASILRRGLDPTSINVLGRKTADLREHYIIGRKLGQGQFGTTYLCTEINTGCEYACKTIPKRKLITKEDVEDVRREIQIMHHLSGHKNVVAIKDVYEDGQAVHIVMELCAGGELFDRIQEKGHYSERKAAELIRIIVSIVAMCHSLGVMHRDLKPENFLLLDKDDDLSIKAIDFGLSVFFKPGQAFTELVGSPYYVAPEVLHKRYGPESDVWSAGVILYVLLSGVPPFWAETQQGIFDAVLKGHIDFQSDPWPKISDSAKDLIRKMLSHCPSERLKAHEVLRHPWICENGVATDQALDPSVISRLKQFSAMNKLKKLALRVIAERLSEEEIAGLREMFKAVDTKNRGVITFGELREGLRRFGAEFKDTEIGDIMEAAHNDNNVTIHYEEFIAATLPLNKIEREEHLLAAFTYFDKDGSGYITVDKLQRACGEHNMEDSLLEEIISEVDQNNDGQIDYAEFVAMMQGSNVGLGWRTMESSLNVALRDAPQVH | not soluble
GPSDMYVHVGNLIYRNLHLFNSEMHESILVSYSSDLIIYRTNTVGDDYIPSCDCTQATYYCKHKNRYFPITVTSHDWYEIQESEYYPKHIQYNLLIGEGPCEPGDCGGKLLCKHGVIGIVTAGGDNHVAFIDLRHFHCAEEQ | soluble
MGGEDDELKGLLGLPEEETELDNLTEFNTAHNKRISTLTIEEGNLDIQRPKRKRKNSRVTFSEDDEIINPEDVDPSVGRFRNMVQTAVVPVKKKRVEGPGSLGLEESGSRRMQNFAFSGGLYGGLPPTHSEAGSQPHGIHGTALIGGLPMPYPNLAPDVDLTPVVPSAVNMNPAPNPAVYNPEAVNEPKKKKYAKEAWPGKKPTPSLLI | soluble
MSLQNRIMITGAGSGLGREMALRWAREGWRLALSDINDAGLQETLALVREAGGDGFVQRCDVRDYSQLTAFAQTCEERFGGMDIIVNNAGVASGGFFNELSLEDWDWQIAINLMGVVKGCKAFLPMLQASKGKIINIASMAALMQAPAMSNYNVAKAGVVALSESLLVELRDQDVGVHVVCPSFFQTNLLDSFRGPTPAMKAQIGRLLEKSPITATDIADYIFTQVAEGEFMILPHEEGRLAWDMKRQQPQAMYDEMTVMCAKMRAKAQKGEGHHHHHH | soluble
KFGELREISGNQYVNEVTNAEKDLWVVIHLYRSSVPMCLVVNQHLSVLARKFPETKFVKAIVNSCIEHYHDNCLPTIFVYKNGQIEGKFIGIIECGGINLKLEELEWKLSEVGAIQSDLEEN | soluble
VELPTEYTEQFSSQPTLNSKPIIKFEFTGNSVDAPVLSMASKKFGIDFSILMSQIDYAGGVKFGFVIAEVEGDGEAITAAKCYLINNNVKVEVLGYVG | not soluble
MDTQQIDVMVADASHEVYVDTILETIRNAAAVRGTGIAERTHEYVATKMKEGKAIIALCGDTFAGFTYIESWGNKQYVATSGLIVHPDFRGLGLAKRIKQASFQLARLRWPKAKIFSLTSGAAVMKMNTELGYVPVTFNELTDDEAFWKGCEGCTNHDILAAKNRKFCICTAMLYDPTDPRNIKKEQERNNI | not soluble
APEAFLNSVLQPFVLPFLQRYPKIQLKLRAADGEIDLFRQGIDVAFKLTDKPDENLVLKEISKTNLVLCASPDYLAQRGMPEHPTQLEQHDCIYLAENDKDNIWSFFKEEAFHSIAVSGRYAVNHSQMRLNGVKAGLGIGIFHDFVVKEALERGEVVEVLSDWMIKSNYHGAVAMQYAQTKYMPARLRVFIGFVNEHLVSKEPTHV | not soluble
MIMQEKIKEIASRVRELRELSEISVEKMAEYLQVSKEIYEKYENGTEDIPASILFEIAHRLQVDMATLLTGEEPRMNVFTVTRSGKGVSVERREQYRYQNLAEKFIHKKAEFFIVTVDPKPQGTKPDTNSHPGQEFNYVLEGSLKVYIHHNEIILNEGDSIYFDSNYQHAMEAMNGKTAKFLAVIM | not soluble
MPKRKTGYEEMLEDVIETLKQSPEEVNKALETSGKVVEAANDLTKDELALIAAYVKADLKEFSESYEDSKSGPFYLTVADSIWQGLLEITDRTKVEWVELFDDLEHQGLYEAGEVIGLGTLVCDECGHKTTYNHPIIIIPCIKCGHKGFSRQSLKP | not soluble
MSLHIIILSPVMPIWDRGVFCSSFTKLCLARGFHITLLDTLSLFPSHSAFCNNSTVEILPFITEKLKKYFKEPSVLVGFSMAGMLVQILAARLPNVQAVLAVNAPGYPDKPLKRQIGCILTFLKNKDLSGALEILNSFMCPRGGREKRVLWEIPDEQKSVAIERMTRGFTFLLGGDARDEIIKYTGKFLALIGEKSQLATLANQTKSQCLNHEYQVISGAGTRLWDDNPAMTNAIVHKWIDAL | not soluble
MKITFIGGGNMAGAMIGGLIHHGSTPSHICAVETDAMRRQQLAEACGVTVTASIPDGIHGSEIVILAVKPQQLRAVANQAAQFLQNKLVISIAAGVRASDLSQWLNRHEFVIRAMPNTPALIGEGITGLYALPLVDSRQKEQATTILEAIGTVIWVNEEAQLDAVTALSGSGPAYVFYFLEAMQEAGTQLGLTADTAKQLAMQTFLGATHLAAQSNDTLATLRMKVTSQGGTTEQALLSMEQADIRGAFIRAMHAACDRSRQMGEIFGRTLEHHHHHH | soluble

Source: the DeepSol protein solubility set
